Among the data in patent publication US20160115500A1 (University of California, published 2016) are Threshold values, retold here.

Sequences and labels used below:
B1: PYR1^K59R,F108A,S122G,V81T (receptor, not shown: small tags and cut ends)
chain: MPSELTPEERSELKNSIAEFHTYQLDPGSCSSLHAQRIHAPPELVWSIVRRFDKPQTYRHFIKSCSVEQNFEMRVGCTRDTIVISGLPANTSTERLDILDDERRVTGASIIGGEHRLTNYKGVTTVHRFEKENRIWTVVLESYVVDMPEGNSEDDTRMFADTVVKLNLQKLATVAEAMARNSGDGSGSQVT
notes: pBD-PYR1 fusion in yeast
B2: PYR1^K59R,S122G (receptor, not shown: small tags and cut ends)
chain: MPSELTPEERSELKNSIAEFHTYQLDPGSCSSLHAQRIHAPPELVWSIVRRFDKPQTYRHFIKSCSVEQNFEMRVGCTRDVIVISGLPANTSTERLDILDDERRVTGFSIIGGEHRLTNYKGVTTVHRFEKENRIWTVVLESYVVDMPEGNSEDDTRMFADTVVKLNLQKLATVAEAMARNSGDGSGSQVT
notes: pBD-PYR1 fusion in yeast
B3: PYR1^Y58H,K59R,F108A,S122G (receptor)
chain: MPSELTPEERSELKNSIAEFHTYQLDPGSCSSLHAQRIHAPPELVWSIVRRFDKPQTHRHFIKSCSVEQNFEMRVGCTRDVIVISGLPANTSTERLDILDDERRVTGASIIGGEHRLTNYKGVTTVHRFEKENRIWTVVLESYVVDMPEGNSEDDTRMFADTVVKLNLQKLATVAEAMARNSGDGSGSQVT
notes: pBD-PYR1 fusion in yeast
B4: PYR1^K59R,F108A,S122G,V164I (receptor)
chain: MPSELTPEERSELKNSIAEFHTYQLDPGSCSSLHAQRIHAPPELVWSIVRRFDKPQTYRHFIKSCSVEQNFEMRVGCTRDVIVISGLPANTSTERLDILDDERRVTGASIIGGEHRLTNYKGVTTVHRFEKENRIWTVVLESYVVDMPEGNSEDDTRMFADTVIKLNLQKLATVAEAMARNSGDGSGSQVT
notes: pBD-PYR1 fusion in yeast
B5: PYR1^K59R,F108N (receptor, not shown: small tags and cut ends)
chain: MPSELTPEERSELKNSIAEFHTYQLDPGSCSSLHAQRIHAPPELVWSIVRRFDKPQTYRHFIKSCSVEQNFEMRVGCTRDVIVISGLPANTSTERLDILDDERRVTGNSIIGGEHRLTNYKSVTTVHRFEKENRIWTVVLESYVVDMPEGNSEDDTRMFADTVVKLNLQKLATVAEAMARNSGDGSGSQVT
notes: pBD-PYR1 fusion in yeast
B6: PYR1^K59R,F108C (receptor, not shown: small tags and cut ends)
chain: MPSELTPEERSELKNSIAEFHTYQLDPGSCSSLHAQRIHAPPELVWSIVRRFDKPQTYRHFIKSCSVEQNFEMRVGCTRDVIVISGLPANTSTERLDILDDERRVTGCSIIGGEHRLTNYKSVTTVHRFEKENRIWTVVLESYVVDMPEGNSEDDTRMFADTVVKLNLQKLATVAEAMARNSGDGSGSQVT
notes: pBD-PYR1 fusion in yeast
B7: PYR1^K59R,F108T (receptor, not shown: small tags and cut ends)
chain: MPSELTPEERSELKNSIAEFHTYQLDPGSCSSLHAQRIHAPPELVWSIVRRFDKPQTYRHFIKSCSVEQNFEMRVGCTRDVIVISGLPANTSTERLDILDDERRVTGTSIIGGEHRLTNYKSVTTVHRFEKENRIWTVVLESYVVDMPEGNSEDDTRMFADTVVKLNLQKLATVAEAMARNSGDGSGSQVT
notes: pBD-PYR1 fusion in yeast
B8: PYR1^K59R,F108A,S122G,V83L (receptor)
chain: MPSELTPEERSELKNSIAEFHTYQLDPGSCSSLHAQRIHAPPELVWSIVRRFDKPQTYRHFIKSCSVEQNFEMRVGCTRDVILISGLPANTSTERLDILDDERRVTGASIIGGEHRLTNYKGVTTVHRFEKENRIWTVVLESYVVDMPEGNSEDDTRMFADTVVKLNLQKLATVAEAMARNSGDGSGSQVT
notes: pBD-PYR1 fusion in yeast
B9: PYR1^Y58H,K59R,V81I,F108A,S122G (receptor)
chain: MPSELTPEERSELKNSIAEFHTYQLDPGSCSSLHAQRIHAPPELVWSIVRRFDKPQTHRHFIKSCSVEQNFEMRVGCTRDIIVISGLPANTSTERLDILDDERRVTGASIIGGEHRLTNYKGVTTVHRFEKENRIWTVVLESYVVDMPEGNSEDDTRMFADTVVKLNLQKLATVAEAMARNSGDGSGSQVT
notes: pBD-PYR1 fusion in yeast
B10: PYR1^K59R,F108I (receptor, not shown: small tags and cut ends)
chain: MPSELTPEERSELKNSIAEFHTYQLDPGSCSSLHAQRIHAPPELVWSIVRRFDKPQTYRHFIKSCSVEQNFEMRVGCTRDVIVISGLPANTSTERLDILDDERRVTGISIIGGEHRLTNYKSVTTVHRFEKENRIWTVVLESYVVDMPEGNSEDDTRMFADTVVKLNLQKLATVAEAMARNSGDGSGSQVT
notes: pBD-PYR1 fusion in yeast
B11: PYR1^K59R,F108S (receptor)
chain: MPSELTPEERSELKNSIAEFHTYQLDPGSCSSLHAQRIHAPPELVWSIVRRFDKPQTYRHFIKSCSVEQNFEMRVGCTRDVIVISGLPANTSTERLDILDDERRVTGSSIIGGEHRLTNYKSVTTVHRFEKENRIWTVVLESYVVDMPEGNSEDDTRMFADTVVKLNLQKLATVAEAMARNSGDGSGSQVT
notes: pBD-PYR1 fusion in yeast
B12: PYR1^K59R,F108G (receptor, not shown: small tags and cut ends)
chain: MPSELTPEERSELKNSIAEFHTYQLDPGSCSSLHAQRIHAPPELVWSIVRRFDKPQTYRHFIKSCSVEQNFEMRVGCTRDVIVISGLPANTSTERLDILDDERRVTGGSIIGGEHRLTNYKSVTTVHRFEKENRIWTVVLESYVVDMPEGNSEDDTRMFADTVVKLNLQKLATVAEAMARNSGDGSGSQVT
notes: pBD-PYR1 fusion in yeast
B13: PYR1^K59R,V81I,F108A,S122G,A160V (receptor)
chain: MPSELTPEERSELKNSIAEFHTYQLDPGSCSSLHAQRIHAPPELVWSIVRRFDKPQTYRHFIKSCSVEQNFEMRVGCTRDIIVISGLPANTSTERLDILDDERRVTGASIIGGEHRLTNYKGVTTVHRFEKENRIWTVVLESYVVDMPEGNSEDDTRMFVDTVVKLNLQKLATVAEAMARNSGDGSGSQVT
notes: pBD-PYR1 fusion in yeast
B14: PYR1^K59R,F108V (receptor, not shown: small tags and cut ends)
chain: MPSELTPEERSELKNSIAEFHTYQLDPGSCSSLHAQRIHAPPELVWSIVRRFDKPQTYRHFIKSCSVEQNFEMRVGCTRDVIVISGLPANTSTERLDILDDERRVTGVSIIGGEHRLTNYKSVTTVHRFEKENRIWTVVLESYVVDMPEGNSEDDTRMFADTVVKLNLQKLATVAEAMARNSGDGSGSQVT
notes: pBD-PYR1 fusion in yeast
B15: PYR1^K59R,F108Q (receptor, not shown: small tags and cut ends)
chain: MPSELTPEERSELKNSIAEFHTYQLDPGSCSSLHAQRIHAPPELVWSIVRRFDKPQTYRHFIKSCSVEQNFEMRVGCTRDVIVISGLPANTSTERLDILDDERRVTGQSIIGGEHRLTNYKSVTTVHRFEKENRIWTVVLESYVVDMPEGNSEDDTRMFADTVVKLNLQKLATVAEAMARNSGDGSGSQVT
notes: pBD-PYR1 fusion in yeast
B16: PYR1^K59R,F108Q,S122G (receptor, not shown: small tags and cut ends)
chain: MPSELTPEERSELKNSIAEFHTYQLDPGSCSSLHAQRIHAPPELVWSIVRRFDKPQTYRHFIKSCSVEQNFEMRVGCTRDVIVISGLPANTSTERLDILDDERRVTGQSIIGGEHRLTNYKGVTTVHRFEKENRIWTVVLESYVVDMPEGNSEDDTRMFADTVVKLNLQKLATVAEAMARNSGDGSGSQVT
notes: pBD-PYR1 fusion in yeast
B17: PYR1^K59R,F108I,S122G (receptor, not shown: small tags and cut ends)
chain: MPSELTPEERSELKNSIAEFHTYQLDPGSCSSLHAQRIHAPPELVWSIVRRFDKPQTYRHFIKSCSVEQNFEMRVGCTRDVIVISGLPANTSTERLDILDDERRVTGISIIGGEHRLTNYKGVTTVHRFEKENRIWTVVLESYVVDMPEGNSEDDTRMFADTVVKLNLQKLATVAEAMARNSGDGSGSQVT
notes: pBD-PYR1 fusion in yeast

The assay addresses T1, GAL4 activation domain fusion (ACT) to HAB1 (UniProt Q9CAJ0 23-511, limits assumed).
T1 construct: pACT-HAB1 fusion in yeast reporter strains; also called pACT-HAB1
T1 sequence (looked up): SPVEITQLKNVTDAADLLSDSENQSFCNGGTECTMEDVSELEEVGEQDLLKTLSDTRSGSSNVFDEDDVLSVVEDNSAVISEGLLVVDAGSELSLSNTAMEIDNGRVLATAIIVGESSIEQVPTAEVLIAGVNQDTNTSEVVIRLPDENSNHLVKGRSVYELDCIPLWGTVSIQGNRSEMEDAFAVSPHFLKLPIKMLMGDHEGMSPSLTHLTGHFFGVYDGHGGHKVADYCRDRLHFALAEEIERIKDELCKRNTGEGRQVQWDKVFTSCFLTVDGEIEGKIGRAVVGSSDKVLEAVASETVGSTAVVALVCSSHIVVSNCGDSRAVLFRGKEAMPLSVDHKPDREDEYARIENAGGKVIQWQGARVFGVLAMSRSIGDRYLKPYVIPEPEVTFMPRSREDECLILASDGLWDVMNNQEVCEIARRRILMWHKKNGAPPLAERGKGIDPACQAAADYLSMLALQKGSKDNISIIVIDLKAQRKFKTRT
Nature of the assay: yeast two-hybrid, X-gal; lowest mandipropamid concentration giving signal.
B1 showed a Threshold of 0.25 µM.
As to B2, the Threshold amounted to 100 µM.
As for B3, the figure is 0.25 µM; as for B4, 0.25 µM.
Molecule B5 gave a Threshold of 100 µM.
As for B6, the figure is 100 µM; as for B7, 100 µM.
In turn, B8 gave a Threshold of 0.05 µM.
As for B9, the figure is 0.05 µM; as for B10, 100 µM; as for B11, 100 µM.
As for B12, the figure is 100 µM; as for B13, 0.05 µM.
B14 showed a Threshold of 100 µM.
B15 gave a Threshold of 100 µM.
As for B16, the figure is 10 µM; as for B17, 10 µM.
